Data taken from patent US20250145730A1 (SHANGHAI BAO PHARMACEUTICALS, published 2025).

Biological target: T1, human FcRn (human, UniProt P55899 24-297; P61769 21-119)
T1 construct: also called hFcRn
Test: BLI, acidic conditions, against the wild-type antibody

fold of the wild-type antibody's affinity: ≤ 3 fold
B1: Antibody 8 (antibody, human IgG1, kappa)
heavy: not shown
light: DIVMTQSHLSMSTSLGDPVSITCKASQDVSTVVAWYQQKPGQSPRRLIYSASYRYIGVPDRFTGSGAGTDFTFTISSVQAEDLAVYYCQQHYSPPYTFGGGTKLEIKRTVAAPSVFIFPPSDEQLKSGTASVVCLLNNFYPREAKVQWKVDNALQSGNSQESVTEQDSKDSTYSLSSTLTLSKADYEKHKVYACEVTHQGLSSPVTKSFNRGEC
notes: also called antibody 3-Fucose
